Test results as given in doi:10.1101/739813 (bioRxiv, 2019).
Where no end group is shown, it is not given here.

Columns and labels:
[1] = target: the molecule itself; assay: crystal structure
[2] = target: pRab8a(GTP): Rab8a (Q67L, residues 1-181) phosphorylated at T72, GTP-bound (UniProt P61006); assay: ITC
Sequence of UniProt P61006 (P61006 1-181 Q67L): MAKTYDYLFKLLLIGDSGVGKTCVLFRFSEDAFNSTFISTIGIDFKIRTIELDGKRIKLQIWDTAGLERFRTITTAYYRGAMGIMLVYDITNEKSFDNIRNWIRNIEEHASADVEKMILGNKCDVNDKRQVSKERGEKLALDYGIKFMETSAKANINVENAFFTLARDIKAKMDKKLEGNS

- Kd [2]: 3.3 µM
Binder: His6-NRPRFTLQELRDVLQERNKLKSQLLVVQEELQCYKSG (peptide, UniProt Q969X0 129-165, looked up) [His6-RILPL2, phospho-Rab binding domain of RILPL2 (residues 129-165)]
- binding result [1]: binds
